Consider 1 molecule from patent publication US20040132641A1 (University of Pennsylvania, published 2004).

For test [1], the target named is T1, Human recombinant TNF-receptor (I) extracellular domain-IgGFc fusion protein (TNFRI-Fc) (human, UniProt P19438 30-211).
T1 construct: extracellular domain; not shown: IgG Fc
T1 sequence (looked up): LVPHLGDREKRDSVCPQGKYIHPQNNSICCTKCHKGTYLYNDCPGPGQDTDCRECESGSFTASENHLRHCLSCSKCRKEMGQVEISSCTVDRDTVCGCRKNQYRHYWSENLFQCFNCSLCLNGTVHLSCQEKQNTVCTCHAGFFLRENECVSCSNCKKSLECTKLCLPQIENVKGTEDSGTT
Briefly: SPR (BIAcore), target immobilised on sensor chip. The procedure: (§1) To assess the specificity of Kp7-6 binding interaction, Fas, FasL and TNFα were immobilized on a sensor chip. Kp7-6 bound to FasL but not to TNFα, which indicates Kp7-6 bound to FasL specifically (FIG. 3B). Kp7-6 also bound to Fas (FIG. 3B). […] (Naismith, J. H. et al. Structure 4, 1251-1262 (1996)). […] No significant binding to TNF-R was detected.
(§2) Biosensor analysis. All experiments were carried out on a BIAcore 3000 instrument (Biacore A G, Uppsala, Sweden) at 25° C. using PBS, pH 7.4, containing 0.005% surfactant P20 (Biacore A G) as the running buffer. FasL-Flag, Fas-Fc or TNFRI-Fc was immobilized on research-grade CM5 sensor chips (Biacore AG) using standard N-ethyl-N-dimethylaminopropyl carbodiimid/N-hydroxysuccinimide coupling. Immobilization was performed in 10 mM sodium acetate buffer at pH 4.5 for FasL-Flag and Fas-Fc, and at pH 4.0 for TNFRI-Fc. After coupling, excess N-hydroxysuccinimide groups were inactivated with ethanolamine. For binding studies, about 1500 resonance units (RU) of FasL-Flag, Fas-Fc and TNFRI-Fc were coupled to the chips. Surface plasmon resonance (SPR) measurements were carried out at a flow rate of 20 ml min⁻¹. Data were analyzed with the BIA evaluation 3.0 software (Biacore AG). The sensograms give values for the relative response in resonance units (RU) after background subtraction versus time in seconds. […]
Background: Surface plasmon resonance follows binding to a sensor surface in real time, without labels.

Test [2] has as its target T2, Flag-tagged soluble human Fas ligand (FasL-Flag) (human, UniProt P48023 103-281, limits assumed).
T2 construct: Bought from Kamiya Biomedical; also called soluble FasL-Flag fusion protein; not shown: Flag tag
T2 sequence (looked up): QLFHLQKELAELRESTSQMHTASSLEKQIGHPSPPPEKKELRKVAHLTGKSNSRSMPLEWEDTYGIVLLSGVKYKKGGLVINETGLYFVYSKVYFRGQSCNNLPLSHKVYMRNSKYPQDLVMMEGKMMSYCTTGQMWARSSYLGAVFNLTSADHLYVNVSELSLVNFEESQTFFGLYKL
As to the kind of experiment: SPR (BIAcore), FasL-Flag immobilised, Kp7-6 in solution. On the procedure:
(§3) The kinetics of binding of Kp7-6, which mediated the best inhibitory activity to FasL, was performed using surface plasmon resonance (BIAcore™) analysis. FasL-Flag was immobilized onto a sensor chip and various solutions containing different concentrations of Kp7-6 were passed over the surface. […] The koff value is considered as an important indicator in the development of therapeutics with biological activity (Benveniste, M. et al. Br J Pharmacol 104, 207-221 (1991); Yiallouros, I. et al. Biochem J 331, 375-379 (1998)), and generally correlates with potent biological effects. (Moosmayer, D. et al. J Interferon Cytokine Res 16, 471-477 (1996)). […] (Berezov, A. et al. J Med Chem 44, 2565-2574 (2001)).
as §2, with “For binding studies, about 1500 resonance units (RU) of FasL-Flag, Fas-Fc and TNFRI-Fc were coupled to the chips. Surface plasmon resonance (SPR) measurements were carried out at a flow rate of 20 ml min⁻¹.” left out, “AG).” for “AG). The sensograms give values for the relative response in resonance units (RU) after background subtraction versus time in seconds.”

Test [3] has as its target T3, human Fas extra cellular domain-IgGFc fusion protein (Fas-Fc) (human, UniProt P25445 26-173).
T3 construct: extracellular domain; Bought from Kamiya Biomedical; also called soluble Fas receptor; not shown: IgG Fc
T3 sequence (looked up): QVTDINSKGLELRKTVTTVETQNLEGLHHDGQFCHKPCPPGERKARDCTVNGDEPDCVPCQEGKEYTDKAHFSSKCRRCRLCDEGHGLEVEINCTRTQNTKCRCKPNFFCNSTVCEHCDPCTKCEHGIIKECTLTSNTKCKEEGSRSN
As to the kind of experiment: SPR (BIAcore 3000), Fas-Fc immobilised, Kp7-6 in flow. The procedure:
as §1, §2

The target of test [4] is T2, Flag-tagged soluble human Fas ligand …. Briefly: SPR (BIAcore), FasL-Flag immobilised, Kp7-6 in solution; ratio of rate constants. The procedure: as §3
as §2, with “For binding studies, about 1500 resonance units (RU) of FasL-Flag, Fas-Fc and TNFRI-Fc were coupled to the chips. Surface plasmon resonance (SPR) measurements were carried out at a flow rate of 20 ml min⁻¹.” left out, “AG).” for “AG). The sensograms give values for the relative response in resonance units (RU) after background subtraction versus time in seconds.”

The target of the next test is T4, Human recombinant TNFα (human, UniProt P01375 77-233).
T4 construct: Bought from Roche Diagnostics
T4 sequence (P01375 77-233 limits assumed): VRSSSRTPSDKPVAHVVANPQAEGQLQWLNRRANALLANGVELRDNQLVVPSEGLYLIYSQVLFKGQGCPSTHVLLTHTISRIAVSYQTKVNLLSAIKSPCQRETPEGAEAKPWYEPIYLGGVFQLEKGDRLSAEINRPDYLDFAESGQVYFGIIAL
As to the kind of experiment: SPR (BIAcore 3000), TNFα immobilised, Kp7-6 in flow; peptide concentration not given.

In test [5] the target is T2, Flag-tagged soluble human Fas ligand …. Briefly: solid phase ligand binding assay; peptide preincubated with FasL-Flag, inhibition of binding to immobilised Fas-Fc. On the procedure: To compare the inhibitory activities of the Kp7 peptide series, dose-response studies were performed. The best activity was found with Kp7-6, which inhibited 50% of the FasL-Flag molecule binding to immobilized Fas-Fc at 150 μM (FIG. 2B).
Solid phase ligand binding assay. Fas-Fc fusion protein (250 ng/ml) diluted in PBS was immobilized onto 96 well ELISA plate (Costar, High Wycombe, UK) by incubating overnight at 4° C. After blocking with PBS containing 1% skim milk overnight at 4° C. and subsequent washing with PBS containing 0.05% Tween 20 (PBS-Tw), Flag-tagged soluble FasL (100 ng/ml)/peptide solution preincubated in PBS containing 1% skim milk for 1 h at 37° C. was added onto the Fas-Fc coated wells. After 2 h incubation at room temperature, the plate was washed with PBS-Tw, and anti-FLAG(M2)-HRP antibody 1:2500 in PBS containing 1% skim milk was added. After 1 h incubation at room temperature, the plate was washed with PBS-Tw, and the enzyme reaction was started by adding the substrate solution (0.1M sodium acetate buffer (pH 5.0) containing 100 μg/ml of TMBZ and 0.005% (v/v) H₂O₂) and stopped with 2N H₂SO₄. The absorbance at 450 nm was measured with an ELISA reader.

Positions of bridges follow the written chain, without caps; N, C: chain ends. No end group written: not given here.

B1: Kp7-6 (peptide)
peptide: YCDEHFCY
modifications: disulfide 2-7
notes: Synthetic exocyclic peptide derived from the Kp7 loop of human Fas (91 CDEGHGL 97); also called Fas mimetic Kp7-6; exocyclic mimetic Kp7-6
Consider B1, for which the results for the binding result (in test [1]; in test [3]; with Human recombinant TNFα) were “no binding”, “binds” and “no binding”, respectively. The koff (commonly the rate constant with which the complex falls apart) in test [2] was 0.000765 s⁻¹. Moreover, the Kd – broadly, the free concentration of one partner at which half of the binding sites on the other are occupied at equilibrium, for simple one-to-one binding – in test [4] worked out at 11.2 µM. In addition, in test [5], the IC50 (usually the point on the concentration scale where inhibition reaches its midpoint) was determined as 150 µM.
